In patent US20190276542A1 (QILU PUGET SOUND BIOTHERAPEUTICS, published 2019):
Numbering of substitutions follows the chain as printed.

B1: anti-hCTLA4 antibody 2F1 (antibody, human IgG1, V domains shown)
VH: QVQLVESGGGVVEPGRSLRLSCAASGFTFSSYGMHWVRQAPGKGLEWVAVIWYHRSEKDYADSAKGRFTISRDNSKNTLYLQMNSLRAEDTAVYYCARAGLLGYFDYWGQGTLVTVSS
VL: EIVLTQSPGTLSLSPGERATLSCRASQSINSYLAWYQQKPGQAPRPLIYGVSSRATGIPDRFSGSGSGTDFTLTISRLEPEDFAVYYCQQYGMYPFTFGPGTKVDIK
B2: anti-hCTLA4 antibody 6E3 (antibody, human IgG1, V domains shown)
VH: B1 VH with H54K, R55T
VL: B1 VL with I29V, N30T, Y94S
B3: anti-hCTLA4 antibody 3G1 (antibody, human IgG1, V domains shown)
VH: B1 VH with A23T, H54K, R55S, D59Y, A99G
VL: B1 VL
B4: anti-hCTLA4 antibody 8B4 (antibody, human IgG1, V domains shown)
VH: B1 VH with H54Q, R55P, L101F
VL: B1 VL with I29V
B5: anti-hCTLA4 antibody 12G4 (antibody, human IgG1, V domains shown)
VH: B1 VH with H54N, R55T, E57K, A99G
VL: B1 VL with N30T, M93R
B6: anti-hCTLA4 antibody 7A4 (antibody, human IgG1, V domains shown)
VH: B1 VH with A23T, H54Q, R55T
VL: B1 VL with I29V, N30S
B7: anti-hCTLA4 antibody 1E1 (antibody, human IgG1, V domains shown)
VH: B1 VH with H54N, R55P
VL: B1 VL with N30S, Y94S
B8: anti-hCTLA4 antibody 9C4 (antibody, human IgG1, V domains shown)
VH: B1 VH with H54K, R55S
VL: B1 VL with I29L, M93I
B9: anti-hCTLA4 antibody 4H1 (antibody, human IgG1, V domains shown)
VH: B1 VH with A23T, H54N, R55P, E57K, A99G, L102F
VL: B1 VL with I29V, N30S
B10: anti-hCTLA4 antibody 5B2 (antibody, human IgG1, V domains shown)
VH: B1 VH with A23T, H54K, R55S
VL: B1 VL with I29L, N30S, P46L
B11: anti-hPD1 antibody #6 (antibody, human IgG4, V domains shown)
VH: QVQLVQSGAEVKKPGASVKVSCKASGYTFTNYWIHWVRQAPGQGLEWMGEIDPYDSYTNYNQKFKGRVTMTGDTSTSTVYMELSSLTSEDTAVYYCARPGYTYGGMDFWGQGTLVTVSS
VL: DIQMTQSPSSLSASVGDRVTITCRSSQSLFNSGNQKNYLAWYQQKPGKPPKLLIYGASTRESGVPARFSGSGSGTDFTLTISSLQPEDVATYYCQNDHYYPYTFGGGTKVEIK
notes: also called Anti-hPD1 #6; Anti-PD1 #6
B12: anti-hPD1 antibody #9 (antibody, human IgG4, V domains shown)
VH: B11 VH with N31S, I34M, G72I, T74K, Y101F
VL: DIVMTQSPDSLAVSLGERATINCRSSQSLLISGNQKNYLAWYQQKPGQPPKLLIYGASTRDSGVPDRFSGSGSGTDFTLTISSLQAEDVAVYYCQNNHYYPYTFGGGTKVEIK
notes: also called Anti-hPD1 #9; Anti-PD1 #9
B13: anti-hPD1 antibody #5 (antibody, human IgG4, V domains shown)
VH: B11 VH with I34M, Y54F, G72R, T74K, T87R, Y101F
VL: B11 VL with F30L, P49L, E61D, A66S, P86A
notes: also called Anti-hPD1 #5; Anti-PD1 #5
B14: anti-hPD1 antibody #2 (antibody, human IgG4, V domains shown)
VH: B11 VH with N31S, I34M, G72V, T74K, T87R, Y101N, F108Y
VL: B11 VL with P49V, E61D, A66Y
notes: also called Anti-hPD1 #2; Anti-PD1 #2
B15: anti-hPD1 antibody #14 (antibody, human IgG4, V domains shown)
VH: B11 VH with T74K
VL: B11 VL with R24K, P49L, E61D, A66S
notes: also called Anti-hPD1 #14; Anti-PD1 #14
B16: anti-hPD1 antibody #8 (antibody, human IgG4, V domains shown)
VH: B11 VH with G72I, T87R, Y101N
VL: B12 VL with R24K, L30F
notes: also called Anti-hPD1 #8
B17: anti-hPD1 antibody #11 (antibody, human IgG4, V domains shown)
VH: B11 VH with N31S, Y54S, S77N
VL: B12 VL with N22S, L30F
notes: also called Anti-hPD1 #11
B18: anti-hPD1 antibody #12 (antibody, human IgG4, V domains shown)
VH: B11 VH with I34M, Y54F, G72I, S77N, T87R, Y101F
VL: B12 VL with N22S
notes: also called Anti-hPD1 #12
B19: anti-hPD1 antibody #13 (antibody, human IgG4, V domains shown)
VH: B11 VH with N31S, G72V, T74K, S77N, Y101L
VL: B11 VL with R24K, F30L, E61D, R67K
notes: also called Anti-hPD1 #13
B20: anti-hPD1 antibody #15 (antibody, human IgG4, V domains shown)
VH: B11 VH with I34M, G72R, S77N, T87R, Y101L
VL: B11 VL with A66Y
notes: also called Anti-hPD1 #15

These binders were tested against T1, human CTLA4 expressed on Jurkat T cells (human, UniProt P16410 36-223) (assay: cell-based or functional assay).
T1 sequence (P16410 36-223): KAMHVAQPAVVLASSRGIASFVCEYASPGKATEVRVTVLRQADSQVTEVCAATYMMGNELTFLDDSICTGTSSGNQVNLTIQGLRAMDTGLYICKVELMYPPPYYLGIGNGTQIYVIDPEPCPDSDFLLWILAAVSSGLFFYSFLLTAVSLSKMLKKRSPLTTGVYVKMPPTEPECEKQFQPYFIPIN

IC50, luciferase (RLU), CTLA4 Dual-Cell Reporter Assay (Jurkat cells with hCTLA4 plus Raji cells) | Binder
20.5 nM | B1
30 nM | B2
> 340 nM | B3
19 nM | B4
13.9 nM | B5
10.9 nM | B6
28.2 nM | B7
25.3 nM | B8
73.8 nM | B9
> 340 nM | B10

What follows are binders tested against T2, human PD1 expressed on a cell surface (human, UniProt Q15116 25-288) (assay: cell-based or functional assay).
T2 sequence (Q15116 25-288): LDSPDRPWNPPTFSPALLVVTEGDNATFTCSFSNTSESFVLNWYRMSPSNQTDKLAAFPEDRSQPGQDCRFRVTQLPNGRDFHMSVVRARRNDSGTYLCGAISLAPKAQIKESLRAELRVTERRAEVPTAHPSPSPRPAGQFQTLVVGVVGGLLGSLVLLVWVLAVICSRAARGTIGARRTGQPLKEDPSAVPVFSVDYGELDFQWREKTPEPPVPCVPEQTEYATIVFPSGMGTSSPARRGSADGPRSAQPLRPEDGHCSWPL

IC50, luciferase (RLU), PD1 dual cell reporter assay (Jurkat cells with hPD1 plus CHO-K1 cells with hPDL1) | Binder
3.85 nM | B11
3.13 nM | B12
3 nM | B13
2.45 nM | B14
2.69 nM | B15

What follows are binders tested against T1, human CTLA4 expressed on Jurkat T cells (assay: flow cytometry on Jurkat T cells expressing hCTLA4).
Description: After washing, the surface-bound anti-hCTLA4 antibodies were detected with a polyclonal anti-hlgG (Fc-specific) antibody labeled with fluorescein isothiocyanate (FITC)(anti-hlgG-FITC). Binding of anti-hCTLA4 antibodies were detected by flow cytometric analysis. The results were reported a geometric mean fluorescence intensity (MFI) using FlowJo software (FLOWJO, L.L.C., Ashland, Oreg., USA).

EC50 | Binder
0.276 nM | B1
0.437 nM | B2
3.1 nM | B3
0.384 nM | B4
0.15 nM | B5
0.217 nM | B6
0.697 nM | B7
0.473 nM | B8
0.189 nM | B9
2.93 nM | B10

These binders were tested against T2, human PD1 expressed on a cell surface (assay: flow cytometry on OKT3-activated human T cells, CD4+ cells).
Experimental: (§1) The following experiment tested whether the selected anti-hPD1 antibodies can bind to native PD1 expressed on the surface of activated T cells. Human PBMCs were pre-activated with OKT3 (an anti-CD3 antibody) at a concentration of 1 μg/ml. After three days, the PBMCs, which were mostly activated T cells at this time, were distributed into a 96 well microtiter plate using 0.1×10⁶ cells/well. […] The antibody bound to CD4⁺ T cells and CD4⁻ T cells (which were predominately CD8⁺ T cells) was detected using anti-hlgG-FITC and an anti-CD4 antibody labeled with allophycocyanin (anti-CD4-APC).
(§2) The samples were analyzed by flow cytometry (FACScalibur, BD), and binding was reported as an MFI. EC₅₀'s for binding were calculated using GraphPad Prism software.

EC50 | Binder
0.667 nM | B11
1.01 nM | B12
0.974 nM | B13
0.647 nM | B16
33.7 nM | B17
0.398 nM | B14
0.39 nM | B15
0.849 nM | B18
0.998 nM | B19
0.72 nM | B20

What follows are binders tested against T2, human PD1 expressed on a cell surface (assay: flow cytometry on OKT3-activated human T cells, CD4- cells).
Experimental: as §1, §2

EC50 | Binder
0.617 nM | B11
1.48 nM | B12
1.12 nM | B13
0.904 nM | B16
24.7 nM | B17
0.416 nM | B14
0.449 nM | B15
1.16 nM | B18
1.46 nM | B19
0.627 nM | B20

These binders were tested against T3, CTLA4-ECD_Fc, soluble hCTLA4 comprising the extracellular domain of hCTLA4 fused to an Fc fragment (human, UniProt P16410 36-161) (assay: flow cytometry; inhibition of CTLA4-ECD_Fc binding to Raji cells (hB7-1/hB7-2)).
T3 construct: extracellular domain; not shown: Fc fragment
Experimental: In a first assay, inhibition of hCTLA4 binding to hB7-1 and hB7-2 expressed on the surface of Raji cells was assessed. Raji cells, which are human cells, express high levels of hB7-1 and hB7-2. […] After 30 minutes, 1×10⁵ Raji cells were added to each well and incubated for another 30 minutes. […] IC₅₀'s were calculated using GraphPad Prism software (GraphPad, Inc., La Jolla, Calif., USA).

T3 sequence (P16410 36-161): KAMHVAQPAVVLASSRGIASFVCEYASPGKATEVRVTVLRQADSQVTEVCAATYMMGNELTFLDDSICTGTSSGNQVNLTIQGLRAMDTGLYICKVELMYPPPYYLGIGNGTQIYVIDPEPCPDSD

IC50 | Binder
9.1 nM | B1
14.1 nM | B2
3.5 nM | B3
3.8 nM | B4
3.5 nM | B5
19.8 nM | B6
6.3 nM | B7
15.7 nM | B8
8.2 nM | B9
11.5 nM | B10
